Data taken from the DeepSol protein solubility set.

Assay: soluble on expression in E. coli; label from the status in PepcDB or PDB records

Sequence	soluble on expression in E. coli
MSLENYQFPKDFLWGGAIAANQAEGAFKVDGKGISLADLHKYHKGKTNDEISEEQHKGVSLADIKASMEDKVNYYPKRHGIDFYHTYPEDLALLAEMGFKTFRTSLDWTRIFPTGEETEPNEAGLKYYDQLIDKIIELGMEPIITILHYETPVEIVLNNGGWHNRKVIDLFEKYGKTVLDRYNKKVKYWIVINQINLIQFEPFNSTAIPYDAVDDYLSATYQAVHNQFVASAKIYEYGKALNPDLMIGTMLADCTAYPFSCDPDDIVLAMKRNRMEYFFADVQFQGEYPQYALNYFDENNIHIEITEDDKAVLQKNTMDYLALSYYYSQMVDSKKNDLDPASITPNPHLKANPWGWAVDPKGLYNALSQYWDRYHKPIIIAENGFGMYDKLENGEIHDDYRIDYLSAHLKEMKRAMYDGVEIIAYCAWGPIDIVSCSSAQMEKRYGFIYVDLDNEGNGTGKRIKKDSFSWYKKVIESNGEDLEKGIITITTDPNSSSVDKLAAALEHHHHHH	soluble
MVSSLLMSFAPATVRVYATSTKGGSGGPKEEKNPIDFVLGFMTKQDQFYETNPLLKKVDEKEGTTTGGRGTVRGGKNSAPTPVPKKSEGGFGGLGSLFKK	not soluble
MSLTAPRTPGTPRTPRTEHLVLPGVLTAAEAAATVRGILAVQREDGAIPWFRGHHLDPWDHVEAAMALDTADEHEAAERAYAWLARHQNQDGSWYAAYADGDFADVTDRGRETNFVAYVAVGVWHHYLATGDDLFLERMWPVVHAAVEFVLRLQQPGGQIGWRRGDDGTDTTDALLTGSSSVHHALRCALAIAEQREEPQPDWELAAGALRHAIRRHPERFLDKGRYSMDWYYPVLGGALTGTEARSRIQESWDRFVVPGLGVRCVVPNPWVTGGESAELALALWAVGESDHALEILQSIQHLRDPDSGLYWTGYVFEDETVWPRELTAWTAGSLLLAVAALGGHEATCQVFAGERLPRGLDPDCCVEGHHHHHH	soluble
MGSDKIHHHHHHMTEKLVAEKISNRHPAAAPLATGQVPWAIKGELILNCNCTVFCPCVVSLGKHAPTEGYCQAWSGVRIDEGHYGDEDLSGLNVGLMLEIPGLMARGNWKAAAYIDERSSSAAYEGLVNIFSGKARGTTGLFAVLVSEFLGAERAPVIFETEGNARRLMVGKKIQGEIVPVPGKGGADQVVTNTEYWMGPDITVATATKGRVRAFGRVWDFDGRSAEICQIDWSGPR	not soluble
MGSDKIHHHHHHMSRHQNIPALSDVSSTNFSNIRLIATDMDGTLTRRGKFTTPLLQALEDLAAVDIKVLIVTGRSAGWVSGLSSLMPVAGAIAENGGLYFPPGNHKPVVLTPVSDLAKHRQHLATTFENLQTKFPQIQESADNRFRVTDWTFDVADLNQDELQTLDSLCQQMGWGFTYSNVQCHIKPQGQDKAVGLLQVLREYLPQYSPEQIVTVGDSPNDESLFERRYFPVSVGVANVLEYMNQLKYHPAYITNAAEGEGFCELSSYILKSLHIPS	not soluble
GSHMIEPNVISVRLFKRKVGGLGFLVKERVSKPPVIISDLIRGGAAEQSGLIQAGDIILAVNDRPLVDLSYDSALEVLRGIASETHVVLILRGPEGFTTHLETTFTGDGTPKTIRVTQPLGPPTKAV	soluble
GSGKSLLLKVILLGDGGVGKSSLMNRYVTNKFDSQAFHTIGVEFLNRDLEVDGRFVTLQIWDTAGQERFKSLRTPFYRGADCCLLTFSVDDRQSFENLGNWQKEFIYYADVKDPEHFPFVVLGNKVDKEDRQVTTEEAQTWCMENGDYPYLETSAKDDTNVTVAFEEAVRQVLAVEEQLE	soluble
MVWDVETAKRFLEVIRNETIYYPVLIALHTGMRAGEIVSLKWYDVNFEARIISVVKSVRNNRGLKTSDVKTKTSKRSVYINDVLFSELKNLYETIKPKPDDFVCPRLPTGNLTVGYLSKRFKLLVKRYNFPVIRFHDLRHTFATLMLSLGVNTKIVAEILGHSDIKLTADTYSHVLPTMQESAMKEFSKLWKLEHHHHHH	soluble
TSTMGNLQTAINDKSGTLASQNFLDADEQKRNAYNQAVSAAETILNKQTGPNTAKTAVEQALNNVNNAKHALNGTQNLNNAKQAAITAINGASDLNQKQKDALKAQANGAQRVSNAQDVQHNATELNTA	soluble
MSLENNNEIFKEKSRENFNKTADIYDESHDGKFVAPMYDEIIKRILRANPKTVLDVGCGTGNVLKILAKDENLSLYGLDLSEKMIEIAKKNLKGRAELKLGDSENMPWKSNSFDVIVCNASFHHYPNPKKVLIEMKRILKKDGTLIIGDPTAPVIYRQILNLYCKISNKGDYKLYSKKEIENIMKECGFEPFNFIHINHGSFAVNAKIREGHHHHHH	soluble
MGSDKIHHHHHHMVDVEEKSQEVEYVDPTVNRVPNYEVSEKAFLLTQSKVSIEQRKEAAEFVLAKIKEEEMAPYYKYLCEEYLVNNGQSDLEHDEKSDSLNEWIKFDQELYNELCKKNESKIKELNEKIQKLEEDDEGELEQAQAWINLGEYYAQIGDKDNAEKTLGKSLSKAISTGAKIDVMLTIARLGFFYNDQLYVKEKLEAVNSMIEKGGDWERRNRYKTYYGIHCLAVRNFKEAAKLLVDSLATFTSIELTSYESIATYASVTGLFTLERTDLKSKVIDSPELLSLISTTAALQSISSLTISLYASDYASYFPYLLETYANVLIPCKYLNRHADFFVREMRRKVYAQLLESYKTLSLKSMASAFGVSVAFLDNDLGKFIPNKQLNCVIDRVNGIVETNRPDNKNAQYHLLVKQGDGLLTKLQKYGAAVRLTGSDRV	not soluble
MGSDKIHHHHHHMNKLKIGTSGWVYKHWMDIFYPPNLPSDQQLSFYAQHFATVEINFSFYRLPERSVFETWHKQTPSNFLFAVKGSRYLTHMKKLKDPIEPLSRIMERASGLQEKLGPILFQFPHTWHINIERLQPFLELLQTYPKQKFTVEFRHSSWLIPQVYQLLETAGVGLCLPVSPTVPLDICLTAPWTYIRMHSGQWNVGYTDEELSTWVERIRSFLMQEIDVYVYFNNDPDGNAIRDAQRLYCLLGSC	not soluble
LTLGNTTSSVILTNYMDTQYYGEIGIGTPPQTFKVVFDTGSSNVWVPSSKCSRLYTACVYHKLFDASDSSSYKHNGTELTLRYSTGTVSGFLSQDIITVGGITVTQMFGEVTEMPALPFMLAEFDGVVGMGFIEQAIGRVTPIFDNIISQGVLKEDVFSFYYNRDSENSQSLGGQIVLGGSDPQHYEGNFHYINLIKTGVWQIQMKGVSVGSSTLLCEDGCLALVDTGASYISGSTSSIEKLMEALGAKKRLFDYVVKCNEGPTLPDISFHLGGKEYTLTSADYVFQESYSSKKLCTLAIHAMDIPPPTGPTWALGATFIRKFYTEFDRRNNRIGFALAR	soluble
MGSDKIHHHHHHMAYPFNHKEFVAMMEQYNLKSNSITIPEHTILNDLVTENRDCVYLLKSGILAGYIDFDNDKIYSIFTSNFFMGYYTIFDNASLVLTYQTLTECELIIYKKKDIEYSLSLFPENFSFQYTIMRTIAKHGYYKSLLQYRDKKDQLAFVFEMLVKILDIPVEDGVAVLPKSISTTVIKNYCTLSKAFFYSQLKELKEAGIISKVKLQWRINMEALSEKNNSIN	not soluble
SVGREKELSIHFVPGSCRLVEEEVNIPNRRVLVTGATGLLGRAVHKEFQQNNWHAVGCGFRRARPKFEQVNLLDSNAVHHIIHDFQPHVIVHCAAERRPDVVENQPDAASQLNVDASGNLAKEAAAVGAFLIYISSDYVFDGTNPPYREEDIPAPLNLYGKTKLDGEKAVLENNLGAAVLRIPILYGEVEKLEESAVTVMFDKVQFSNKSANMDHWQQRFPTHVKDVATVCRQLAEKRMLDPSIKGTFHWSGNEQMTKYEMACAIADAFNLPSSHLRPITDSPVLGAQRPRNAQLDCSKLEILGIGQRTPFRIGIKESLWPFLIDKRWRQTVFH	soluble
MGSDKIHHHHHHAAEGRKDFNLYTLVPGSATVVLETDDLAGMIQGINELSCSKDRHFLYVSKLFSYLKLHLYTLLEDTPHGLSKQMNKVLLSFHEPDNDRNQVLYCSLGNGDYELVEKFIRKYCSSSFPSKLFDYKGEEIRIYPMPDDSFLACYFTSDFLVVSYQKKLIEQVIDARLSKKSLLTDASFAKVHEDKRARVAATIYARMQPLSMGKATDGIRSCTQLGGWTEFDMKMNGDAIYFSGVSHDTDTCLTFMNVLRQQQPVEDFPGDILPASTFFFNKRSVTDMQAMLDFTARQEYTTSTYSDYIRDRDGELLAYLKENAGGEIVTCLFHSTDTLSNPCAVMSIPLRDGQQAERVLQGMLRTAPKEVDGPPKPRTTFCKTPLRAYTLYVLPRNTLFTQLTGITESALYIYACFYEGRLVLAPDVESLTAYLRHLDKKEILDDTPGYEEAVVNLSPSYNFMMVADLGETFSQPENYVRLIPAFFFRNQEFFRHFILSAQFTCTDGIVYPNVVLIYKGESDDVS	not soluble
MHSQFGKHKSDISLLTPAPPSPKAFGLLYAAHWLGSTDPEIWERLETLANENQCLIDLRDEKVPGTYETQLFVIGYAGNIVTVLKQLQDYIDEPNNFDRFDIDRRPRKETLKMCVPTDMFLSKFGVGLVAEGRITHYEQNRGVTIKTYAISQSQHVISVYSNENNHQLPLHDLVEYFAYPSQCYEKSFAQKIPYLVDNKSGLLNRFKDISKLDVIKTPRDQLWLMALDGMKTVDARESILQALRENPDSASLYVRACKLEHLPSCKMEWLLHALQRDTLDDKMKIIKHAETYFRGPAILQILESAVLSLSNDIHIVRELAIAHEKSGNFEKSMQFLKDCIDNNSWNSTELTASMIHCEHAGANRTSKVYLEAMYSIFNFTTSEEAALIEIVKVLVETDSPLSAKSLSLELMTRYAGTPTFEKTRQLFHSLFYTTCSKSDSERYDDTFIKHMAKWNKKQQEQQK	not soluble
MKMATDDHQPPMVRGRRIKLKYAHAGGYNPPIVVIHGNMVRELPDSYKRYLMNYFRKSLEIMGTPIRINFQNSENPFENRANKLTLSQERKRKRMMSVVKNRKK	not soluble
MFENLTDRLSKTLKNISGKGRLTEDNIKDTLREVRMALLEADVALPVVRDFVNRVKEGAVGVEVSKSLTPGQEFIKIVRQQLEAVMGESNEALNLAAQPPAVILMAGLQGAGKTTSVGKLSKLLKERDKKKVLVVSADVYRPAAIKQLETLANDLGVDFFPSTPDQKPIDIANAAIDHAKKKFYDVLIVDTAGRLAIDEQMMAEIQALHKAINPVETLFVVDAMTGQDAADTAKAFGDALPLTGVILTKVDGDARGGAALSVRHITGKPIKFIGVGEKTDALEPFHPDRIASRILGMGDVLSLIEDLQRNVDQEKAEKLAKKFKEKKGFDLEDFREQLGQMKNMGGMMGMLDKLPGMSQLPADMKDKVDDRVFKQMEAIINSMTMKERQNPDLIKGSRKKRIAAGSGTQVQDVNRLLKQFTQMQKMMKKMQQGGMKGMMRNMQGLMGGGGRGGFGGGFFGR	not soluble
MRRQRRSITDIICENCNYLPTKRSRNKRKPIPKESDVKTFNYTAHLWDIRWLRERARKTR	not soluble
MSLNVVKFGGSSLASAPQLQKVLQIVKEEPRRTFVVVSAPGKRTPQDIKVTDLLIQYYQRYLNNEEIESTISAIIRRYEDLFDELHLDKAVLADIAISIRQLATLPKENNAFLFDYFLASGEDNNAKVVASFFKQNGLDARYISPKELGLLVTPEPGNARILPKALEKISVYRETQQILVIPGFFGYTEAGEICTFSRGGSDITGSIVAAGVQADLYENFTDVDGIYVAHPGIIEQPQTIQELTYREMRELAYAGFAVLHDEALMPAYRANIPVVIKNTNNPHHPGTLITTSRKVKHAPVVGIASDQGFASIYISKYLMNRELGFGRRLLEVLEKLALSYEHMPSGIDDITIVLREDQLTTEIENRLMAQLQEVLAPDELRITHHLSMIMIVGEGMRQRIGVTAESTMALAKEKINLEMINQGSSEVSIMFGIKKEQEEKAIKALYRTFFHDEGHHHHHH	soluble
